Test results reported in US20100261660A1 (published 2010).
Residue numbers refer to the chain shown, from its start.

Molecular target: T1, Soluble CTLA-4-Ig (extracellular domain of human CTLA-4 fused to the Fc portion of human IgG1) (human, UniProt P16410 36-161, FITC-conjugated in the FACS binding assays)
T1 construct: extracellular domain; bought from R&D Systems; also called sCTLA-4-Ig; CTLA-4-Ig Fc; not shown: Fc portion of human IgG1
Assay: competitive FACS on transfected cells, FITC-sCTLA-4-Ig with biotin-sCD28-Ig; grade 0-2 of CTLA-4/CD28 ratio vs WT hB7-1

T1 sequence (P16410 36-161): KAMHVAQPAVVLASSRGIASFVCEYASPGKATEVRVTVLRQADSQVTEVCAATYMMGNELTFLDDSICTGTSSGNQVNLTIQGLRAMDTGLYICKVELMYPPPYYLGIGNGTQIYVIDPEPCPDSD

B1: Round 1 (R1) CTLA4BP-5 (ligand)
chain: VIHVTKEVKEVATLSCGHNVSVEELAQTRIHWQKEKKMVLTMMSGDMNIWPEYKNRTIFDITNNLSIVILALRPSDEGTYECVVLKYEKDAFKREHLAEVTLSVKADFPTPSISDFEIPPSNIRRIICSTSGGFPEPHLSWLENGEELNAINTTVSQDPGTELYTVSSKLDFNMTTNHSFMCLIKYGHLRVNQTFNWNTPKQEHFPDNLLPSWAITLISVNGIFVICCLTYCFAPRCRERRRNERLRRESVRPV
notes: also called R1-5
  Binding Score: 2

B2: Round 2 CTLA4BP 2x1-b12 (ligand)
chain: VIHMTKEVKEVATLSCGHNVSVEELAQTRIYWQKEKKMVLTMMSGDMNIWPEYKNRTIFDITNNLSIVILALRPSDEGTYECVALKYEKDAFKQEHLAEVTLSVKADFPTPSISDFEIPPSNIRRIICSTSGGFPEPRLAWMEDGEELNAINTTVSQDPETELYTVSSKLDFNMTANHSFMCLIKYGHLRVNQTFNWNTPKQEHFPDNLLPSWAITLISVNGIFVICCLTYCFAPRCRERRRNERLRRESVCPV
  Binding Score: 1

B3: Round 2 CTLA4BP 5x2-e12 (ligand)
chain: B1 chain with D46G, P120T, N152S, T165A, H178R, M181V, P200T
  Binding Score: 0

B4: Round 2 CTLA4BP 2x2-f12 (ligand)
chain: B1 chain with E81G, K86E, T101M, G160E, T165A, V191A
  Binding Score: 1

B5: Round 2 CTLA4BP 5x2-h11 (ligand)
chain: VIHVTKKVKEVATLSCGHNVSVEELAQTRIYWQKGKKMVLTMMSGDMNIWPECKNRTIFDITNNLSIVILALRPSDEGTYECAVLKYEKDAFKREHLAEVTLSVKADFPTPSISDFEIPTSNIRRIICSTSGGFPEPHLFWLENGEELNAINTTASQDPETELYAVSSKLDFNMTTNHSFMCLIKYGHLRVNQTFNWNTPKQEHFPDNLLPSWAITLISVNGIFVICCLTYCFAPRCRERKSNERLRRESVRPV
  Binding Score: 1

B6: Round 2 CTLA4BP 2x1-c4 (ligand)
chain: B1 chain with S15P, T101M, S114T, S140F, T165A, S179N
  Binding Score: 1

B7: Round 2 CTLA4BP 5x3-c3 (ligand)
chain: B1 chain with V4M, H18P, H31Y, P120T, Y231H, R252C
  Binding Score: 1

B8: Round 2 CTLA4BP 2x1-h12 (ligand)
chain: B1 chain with H18L, T101M, S114T, V220A, R241K, R242S, R252C
  Binding Score: 1

B9: Round 2 CTLA4BP 2x1-g8 (ligand)
chain: B1 chain with I67V, S114T, H178R, M181V, R241K, R242S
  Binding Score: 1

B10: Round 2 CTLA4BP 5x2-b7 (ligand)
chain: B1 chain with S114T, T176A, M181V, V220A
  Binding Score: 1

B11: Round 2 CTLA4BP 5x3-c4 (ligand)
chain: B2 chain with M4V, A84V, Q94R, V155A, A176T, H178R, M181V, L210F, C252R
  Binding Score: 1

B12: Round 1 CTLA4BP-13 (ligand)
chain: VIHVTKEVKEVATLSCGHNVSVEELAQTRIYWQKEKKMVLTMMSGDMNIWPEYKNRTIFDITNNLSIVILALRPSDEGTYECVVLKYEKDAFKREHLAEVTLSVKADFPTPSISDFEIPTSNIRRIICSTSGGFPEPHLFGLENGEEINAINTTASQDPETELYTVSSKLDFNMTPNRSFVCLIKYGHLRVNQTFNWNTPKQEHFPDNLLPSWAITLISANGIFVICCLTYCFAPRCRERKSNERLRRESVRPV
notes: also called R1-13; R1 CTLA-4BP-13
  Binding Score: 1

B13: Round 2 CTLA4BP 5x2-f3 (ligand)
chain: B12 chain with S44P, K86R, F140S, G141W, I148L, P176T, Y231H
  Binding Score: 0

B14: Round 2 CTLA4BP 5x1-d7 (ligand)
chain: VIHVTKEVKEVATLSCGHNVPVEELAQTRIYWQKEKKMVLTMMSGDMNIWPEYKNRTIFDITNNLSIVILALRPSDEGTYGCVVLEYEKDAFKREHLAEVMLSVKADFPTPSITDLEIPPSNIRRIICSTSGGFPEPHLFWLENGEELNAINTTASQDPETELYAVSSKLDFNMTTNHSFMCLIKYGHLRVNQTFNWNTPKQEHFPDNLLPSWAITLISANGIFVICCLTYCFAPRCRERRRNERLRRESVHPV
  Binding Score: 1

B15: Round 1 CTLA4BP-11 (ligand)
chain: B14 chain with V4M, P21S, G81E, E86K, L116F, A155V, P200T, A220V, Y231H
notes: also called R1-11; R1 CTLA-4BP-11
  Binding Score: 1

B16: Round 2 CTLA4BP 5x2-d7 (ligand)
chain: B1 chain with V4M, H18L, T101M, G160E, E162G
  Binding Score: 1

B17: Round 2 CTLA4BP 2x2-f1 (ligand)
chain: B1 chain with P74L, P120T, S140F, V155A, G160E, H178R, M181V
  Binding Score: 1

B18: Round 1 CTLA4BP-27 (ligand)
chain: B1 chain with H18L, H31Y, T101M, G160E, T176A, M181V, R245T
notes: also called R1-27; R1 CTLA-4BP-27
  Binding Score: 1

B19: Round 2 CTLA4BP 5x1-f1 (ligand)
chain: B1 chain with H18L, H31Y, Y53H, S114T, S140F, V155A, G160E, T176A, M181V, R245T
  Binding Score: 1

B20: Round 2 CTLA4BP 2x1-f10 (ligand)
chain: B1 chain with T101M, S114T, H138R, S140A, L142M, N144D, T165A, F224S, R252C
  Binding Score: 1

B21: Round 2 CTLA4BP 2x4-h11 (ligand)
chain: B1 chain with H31Y, K86E, T101M, T165A, T230A, E239G
  Binding Score: 0

B22: Round 2 CTLA4 A-B11-5 (ligand)
chain: ITPKSATKRVKETVMLSCDYSTSTEELTSLRIYWQKDSKMVLAILPGKVQVWPEYKNRTITDMNDNPRIVILALRLSDSGTYTCVIQKPDLKGAYKLEHLTSVRLMIRADFPVPTINDLGNPSPNIRRLICSTSGGFPRPHLYWLENGEELNATNTTLSQDPETKLYMISSELDFNMTSNHSFLCLVKYGDLTVSQTFYWQESKPTPSANQHLTWTIIIPVSAFGISVIIAVILTCLTCRNAAIRRQRRENEVEMQSCSQSP
  Binding Score: 1

B23: Round 2 CTLA4 A-G8-1 (ligand)
chain: B22 chain with A6V, S21N, R75P
  Binding Score: 1

B24: Round 2 CTLA4 A-F6-9 (ligand)
chain: B22 chain with A6V
  Binding Score: 1
